Measured values as given in the supplement of paper PMC10567573.

B1: DCAF4 (parent)
chain: DSHILLCLMGLAETPGCATLLPAS

Variants of: B1
Assay: protein stability index of a GFP-peptide fusion (GPS, HEK-293T) (PSI 1-6); higher = more stable
Settings: c terminus: a fixed tail appended
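Note: lentivirally expressed fusions sorted by FACS into six bins by GFP to DsRed ratio, PSI derived from sequencing read proportions per bin multiplied by bin number.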

First: DSHILLCLMGLAETPMCATLLPAS [G16M]
Second: DSHILLCLMGLAETPACATLLPAS [G16A]
The protein stability index of the first is lower: 2.6 for the first, 3.16 for the second.

First: DSHILLCLMGLAETPDCATLLPAS [G16D]
Second: DSHILLCLMGLAETPPCATLLPAS [G16P]
The protein stability index of the first is lower: 3.45 for the first, 4.04 for the second.

Going from DSHILLCLMGLAETPQCATLLPAS [G16Q] to DSHILLCLMGLAETPLCATLLPAS [G16L], the protein stability index falls from 2.81 to 2.05.

First: DSHILLCLMGLAETPFCATLLPAS [G16F]
Second: DSHILLCLMGLAETPECATLLPAS [G16E]
The protein stability index of the first is lower: 2.85 for the first, 3.54 for the second.

Going from DSHILLCLMGLAETPRCATLLPAS [G16R] to DSHILLCLMGLAETPNCATLLPAS [G16N], the protein stability index rises from 2.39 to 2.77.

First: DSHILLCLMGLAETPTCATLLPAS [G16T]
Second: DSHILLCLMGLAETPKCATLLPAS [G16K]
The protein stability index of the first is higher: 1.99 for the first, 1.38 for the second.

First: DSHILLCLMGLAETPVCATLLPAS [G16V]
Second: DSHILLCLMGLAETPCCATLLPAS [G16C]
The protein stability index of the first is lower: 2.76 for the first, 3.37 for the second.

Going from DSHILLCLMGLAETPHCATLLPAS [G16H] to DSHILLCLMGLAETPICATLLPAS [G16I], the protein stability index rises from 2.37 to 2.9.

Compared with DSHILLCLMGLAETPYCATLLPAS [G16Y], DSHILLCLMGLAETPGCAMLLPAS [T19M] is higher in protein stability index: 2.65 for the first, 3.1 for the second.

Compared with DSHILLCLMGLAETPGCANLLPAS [T19N], DSHILLCLMGLAETPGCADLLPAS [T19D] is higher in protein stability index: 2.42 for the first, 3.26 for the second.

Compared with DSHILLCLMGLAETPGCASLLPAS [T19S], DSHILLCLMGLAETPGCAYLLPAS [T19Y] is higher in protein stability index: 2.67 for the first, 3.13 for the second.

Going from DSHILLCLMGLAETPGCAQLLPAS [T19Q] to DSHILLCLMGLAETPGCAPLLPAS [T19P], the protein stability index rises from 1.43 to 2.5.

Going from DSHILLCLMGLAETPGCAWLLPAS [T19W] to DSHILLCLMGLAETPGCAFLLPAS [T19F], the protein stability index rises from 2.05 to 3.47.

Going from DSHILLCLMGLAETPGCAILLPAS [T19I] to DSHILLCLMGLAETPGCAALLPAS [T19A], the protein stability index falls from 2.58 to 2.22.

Going from DSHILLCLMGLAETPGCAKLLPAS [T19K] to DSHILLCLMGLAETPGCAGLLPAS [T19G], the protein stability index falls from 3.24 to 2.93.

Compared with DSHILLCLMGLAETPGCARLLPAS [T19R], DSHILLCLMGLAETPGCALLLPAS [T19L] is higher in protein stability index: 1.64 for the first, 2.15 for the second.

Compared with DSHILLCLMGLAETPGCAELLPAS [T19E], DSHILLCLMGLAETPGCQTLLPAS [A18Q] is lower in protein stability index: 3.24 for the first, 2.02 for the second.

Going from DSHILLCLMGLAETPGCKTLLPAS [A18K] to DSHILLCLMGLAETPGCGTLLPAS [A18G], the protein stability index falls from 2.82 to 1.11.

Going from DSHILLCLMGLAETPGCDTLLPAS [A18D] to DSHILLCLMGLAETPGCVTLLPAS [A18V], the protein stability index falls from 2.39 to 1.92.

Compared with DSHILLCLMGLAETPGCRTLLPAS [A18R], DSHILLCLMGLAETPGCMTLLPAS [A18M] is higher in protein stability index: 3.11 for the first, 3.66 for the second.

First: DSHILLCLMGLAETPGCCTLLPAS [A18C]
Second: DSHILLCLMGLAETPGCHTLLPAS [A18H]
The protein stability index of the first is higher: 4.64 for the first, 2.28 for the second.

First: DSHILLCLMGLAETPGCSTLLPAS [A18S]
Second: DSHILLCLMGLAETPGCPTLLPAS [A18P]
The protein stability index of the first is lower: 1.6 for the first, 2.65 for the second.

First: DSHILLCLMGLAETPGCTTLLPAS [A18T]
Second: DSHILLCLMGLAETPGCNTLLPAS [A18N]
The protein stability index of the first is higher: 2.3 for the first, 2.07 for the second.

Compared with DSHILLCLMGLAETPGCITLLPAS [A18I], DSHILLCLMGLAETPGCYTLLPAS [A18Y] is higher in protein stability index: 2.33 for the first, 2.47 for the second.

Going from DSHILLCLMGLAETPGCFTLLPAS [A18F] to DSHILLCLMGLAETPGCLTLLPAS [A18L], the protein stability index rises from 2.32 to 3.23.

First: DSHILLCLMGLAETPGCETLLPAS [A18E]
Second: DSHILLCLMGLAETPGRATLLPAS [C17R]
The protein stability index of the first is higher: 2.31 for the first, 1.78 for the second.

Compared with DSHILLCLMGLAETPGLATLLPAS [C17L], DSHILLCLMGLAETPGAATLLPAS [C17A] is higher in protein stability index: 2.23 for the first, 2.98 for the second.

First: DSHILLCLMGLAETPGTATLLPAS [C17T]
Second: DSHILLCLMGLAETPGPATLLPAS [C17P]
The protein stability index of the first is higher: 3.4 for the first, 3 for the second.

First: DSHILLCLMGLAETPGFATLLPAS [C17F]
Second: DSHILLCLMGLAETPGWATLLPAS [C17W]
The protein stability index of the first is lower: 2.34 for the first, 2.44 for the second.

Compared with DSHILLCLMGLAETPGHATLLPAS [C17H], DSHILLCLMGLAETPGNATLLPAS [C17N] is lower in protein stability index: 2.58 for the first, 1.99 for the second.

Compared with DSHILLCLMGLAETPGMATLLPAS [C17M], DSHILLCLMGLAETPGDATLLPAS [C17D] is lower in protein stability index: 2.38 for the first, 1.47 for the second.

First: DSHILLCLMGLAETPGGATLLPAS [C17G]
Second: DSHILLCLMGLAETPGYATLLPAS [C17Y]
The protein stability index of the first is higher: 3.08 for the first, 2.55 for the second.

Going from DSHILLCLMGLAETPGIATLLPAS [C17I] to DSHILLCLMGLAETPGSATLLPAS [C17S], the protein stability index rises from 2.04 to 2.81.

Compared with DSHILLCLMGLAETPGKATLLPAS [C17K], DSHILLCLMGLAETPGEATLLPAS [C17E] is higher in protein stability index: 1.83 for the first, 2.63 for the second.

Going from DSHILLCLMGLAETPGCATLDPAS [L21D] to DSHILLCLMGLAETPGCATLEPAS [L21E], the protein stability index rises from 1.71 to 1.72.

First: DSHILLCLMGLAETPGCATLGPAS [L21G]
Second: DSHILLCLMGLAETPGCATLFPAS [L21F]
The protein stability index of the first is lower: 2.21 for the first, 3.52 for the second.

Going from DSHILLCLMGLAETPGCATLAPAS [L21A] to DSHILLCLMGLAETPGCATLHPAS [L21H], the protein stability index rises from 3.11 to 4.41.

Compared with DSHILLCLMGLAETWGCATLLPAS [P15W], DSHILLCLMGLAETYGCATLLPAS [P15Y] is lower in protein stability index: 2.46 for the first, 2.44 for the second.

Compared with DSHILLCLMGLAETPGCATPLPAS [L20P], DSHILLCLMGLAETPGCATYLPAS [L20Y] is higher in protein stability index: 2 for the first, 3.25 for the second.

Compared with DSHILLCLMGLAETPGCATSLPAS [L20S], DSHILLCLMGLAETPGCATRLPAS [L20R] is lower in protein stability index: 2.54 for the first, 2.34 for the second.

Compared with DSHILLCLMGLAETPGCATGLPAS [L20G], DSHILLCLMGLAETPGCATTLPAS [L20T] is lower in protein stability index: 2.44 for the first, 2.07 for the second.

First: DSHILLCLMGLAETPGCATMLPAS [L20M]
Second: DSHILLCLMGLAETPGCATVLPAS [L20V]
The protein stability index of the first is higher: 2.52 for the first, 2.36 for the second.

Going from DSHILLCLMGLAETPGCATILPAS [L20I] to DSHILLCLMGLAETPGCATFLPAS [L20F], the protein stability index rises from 2.38 to 3.14.

Compared with DSHILLCLMGLAETPGCATKLPAS [L20K], DSHILLCLMGLAETPGCATHLPAS [L20H] is lower in protein stability index: 2.4 for the first, 2.36 for the second.

Compared with DSHILLCLMGLAETPGCATNLPAS [L20N], DSHILLCLMGLAETPGCATALPAS [L20A] is higher in protein stability index: 2.9 for the first, 3.72 for the second.

First: DSHILLCLMGLAETPGCATCLPAS [L20C]
Second: DSHILLCLMGLAETPGCATDLPAS [L20D]
The protein stability index of the first is higher: 2.91 for the first, 2.36 for the second.

First: DSHILLCLMGLAETPGCATQLPAS [L20Q]
Second: DSHILLCLMGLAETPGCATELPAS [L20E]
The protein stability index of the first is higher: 1.93 for the first, 1.9 for the second.
